Test results as given in paper PMC9482650, “Quantitative fragmentomics allow affinity mapping of interactomes” (Nature Communications, 2022).

T1: APBA1_1, Q02410
T1 sequence (Q02410 651-752, limits assumed, looked up): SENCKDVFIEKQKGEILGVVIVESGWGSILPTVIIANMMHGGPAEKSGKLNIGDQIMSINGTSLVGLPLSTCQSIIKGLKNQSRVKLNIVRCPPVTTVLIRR

T2: APBA2_1, Q99767
T2 sequence (Q99767 563-664, limits assumed, looked up): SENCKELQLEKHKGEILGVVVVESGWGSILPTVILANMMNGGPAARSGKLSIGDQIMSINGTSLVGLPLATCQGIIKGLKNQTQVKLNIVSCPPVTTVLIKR

T3: APBA2_2, Q99767
T3 sequence (Q99767 654-744, limits assumed, looked up): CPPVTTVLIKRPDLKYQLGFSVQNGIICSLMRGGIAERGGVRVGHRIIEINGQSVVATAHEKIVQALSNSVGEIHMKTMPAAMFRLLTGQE

T4: ARHGEF11, O15085
T4 sequence (O15085 42-136, limits assumed, looked up): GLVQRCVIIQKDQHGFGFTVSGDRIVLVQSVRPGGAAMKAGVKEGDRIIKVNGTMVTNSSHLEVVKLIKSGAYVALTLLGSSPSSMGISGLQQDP

T5: DFNB31_1, Q9P202
T5 sequence (Q9P202 135-233, limits assumed, looked up): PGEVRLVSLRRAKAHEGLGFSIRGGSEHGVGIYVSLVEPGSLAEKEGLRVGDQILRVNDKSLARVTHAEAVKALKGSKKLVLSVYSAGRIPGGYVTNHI

T6: DLG3_3, Q92796
T6 sequence (Q92796 374-475, limits assumed, looked up): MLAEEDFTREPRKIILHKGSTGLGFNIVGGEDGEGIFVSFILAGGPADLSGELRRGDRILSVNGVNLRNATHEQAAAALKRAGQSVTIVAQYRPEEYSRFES

T7: GRIP1_2, Q9Y3R0
T7 sequence (Q9Y3R0 145-248, limits assumed, looked up): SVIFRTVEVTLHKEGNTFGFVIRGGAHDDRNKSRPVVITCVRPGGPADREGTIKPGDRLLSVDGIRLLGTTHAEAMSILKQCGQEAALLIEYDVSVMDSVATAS

T8: GRIP1_5, Q9Y3R0
T8 sequence (Q9Y3R0 568-668, limits assumed, looked up): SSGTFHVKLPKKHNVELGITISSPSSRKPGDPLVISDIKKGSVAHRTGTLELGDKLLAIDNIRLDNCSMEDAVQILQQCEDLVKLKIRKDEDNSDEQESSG

T9: MPDZ_5, O75970
T9 sequence (O75970 695-796, limits assumed, looked up): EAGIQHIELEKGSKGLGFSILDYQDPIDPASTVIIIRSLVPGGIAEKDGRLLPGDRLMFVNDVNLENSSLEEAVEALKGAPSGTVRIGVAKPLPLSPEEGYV

T10: MPP2, Q14168
T10 sequence (Q14168 180-250, limits assumed, looked up): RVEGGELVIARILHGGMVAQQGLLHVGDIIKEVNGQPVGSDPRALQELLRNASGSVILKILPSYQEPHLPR

T11: NHERF3_3, Q5T2W1
T11 sequence (Q5T2W1 238-333, limits assumed, looked up): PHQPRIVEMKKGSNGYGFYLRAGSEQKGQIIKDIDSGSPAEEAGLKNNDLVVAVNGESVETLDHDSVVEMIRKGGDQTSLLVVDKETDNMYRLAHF

T12: SNTB1, Q13884
T12 sequence (Q13884 107-205, limits assumed, looked up): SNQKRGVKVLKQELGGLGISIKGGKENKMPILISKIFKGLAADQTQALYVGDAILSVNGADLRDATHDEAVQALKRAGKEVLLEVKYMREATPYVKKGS


Key:
Experiment in all cases: holdup assay
Set-up in all cases: key: below the threshold = too weak to quantify, mostly under pKd 3.1 to 4
Settings in all cases: plain residues with an end cap or a label only (N-terminal biotin on a linker: ado-ado)
APBA1_1, Q02410 = biological target: T1, APBA1_1, Q02410
APBA2_1, Q99767 = biological target: T2, APBA2_1, Q99767
APBA2_2, Q99767 = biological target: T3, APBA2_2, Q99767
ARHGEF11, O15085 = biological target: T4, ARHGEF11, O15085
CASK, O14936 = biological target: CASK, O14936
CASK, O14936, sequence (O14936 487-570): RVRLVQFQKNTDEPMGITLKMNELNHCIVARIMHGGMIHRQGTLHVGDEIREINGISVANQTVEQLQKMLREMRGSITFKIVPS

DFNB31_1, Q9P202 = biological target: T5, DFNB31_1, Q9P202
DLG1_2, Q12959 = biological target: DLG1_2, Q12959
DLG1_2, Q12959, sequence (Q12959 314-412): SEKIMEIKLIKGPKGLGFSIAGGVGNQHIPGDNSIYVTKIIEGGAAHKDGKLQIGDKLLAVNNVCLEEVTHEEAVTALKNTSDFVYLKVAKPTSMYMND

DLG1_3, Q12959 = biological target: DLG1_3, Q12959
DLG1_3, Q12959, sequence (Q12959 457-571): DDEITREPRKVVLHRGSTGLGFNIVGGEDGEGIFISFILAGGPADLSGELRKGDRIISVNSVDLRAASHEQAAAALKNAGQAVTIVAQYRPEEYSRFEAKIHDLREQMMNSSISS

DLG3_3, Q92796 = biological target: T6, DLG3_3, Q92796
DLG4_1, P78352 = biological target: DLG4_1, P78352
DLG4_1, P78352, sequence (P78352 62-152): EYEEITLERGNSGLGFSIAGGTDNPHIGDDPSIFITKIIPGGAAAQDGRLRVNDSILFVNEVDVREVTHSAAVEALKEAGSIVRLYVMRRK

FRMPD4, Q14CM0 = biological target: FRMPD4, Q14CM0
FRMPD4, Q14CM0, sequence (Q14CM0 67-160): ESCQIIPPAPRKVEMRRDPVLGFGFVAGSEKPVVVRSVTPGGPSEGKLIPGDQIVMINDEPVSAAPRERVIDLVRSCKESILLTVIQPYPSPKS

GOPC, Q9HD26 = biological target: GOPC, Q9HD26
GORASP2, Q9H8Y8 = biological target: GORASP2, Q9H8Y8
GRID2IP_2, A4D2P6 = biological target: GRID2IP_2, A4D2P6
GRID2IP_2, A4D2P6, sequence (A4D2P6 272-370): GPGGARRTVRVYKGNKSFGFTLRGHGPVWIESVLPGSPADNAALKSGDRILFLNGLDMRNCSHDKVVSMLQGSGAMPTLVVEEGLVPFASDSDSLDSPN

GRIP1_2, Q9Y3R0 = biological target: T7, GRIP1_2, Q9Y3R0
GRIP1_5, Q9Y3R0 = biological target: T8, GRIP1_5, Q9Y3R0
IL16_1, Q14005 = biological target: IL16_1, Q14005
IL16_1, Q14005, sequence (Q14005 210-306): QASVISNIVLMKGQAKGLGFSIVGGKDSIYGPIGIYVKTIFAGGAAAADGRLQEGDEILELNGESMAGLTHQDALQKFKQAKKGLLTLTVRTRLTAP

IL16_3, Q14005 = biological target: IL16_3, Q14005
IL16_3, Q14005, sequence (Q14005 1107-1207): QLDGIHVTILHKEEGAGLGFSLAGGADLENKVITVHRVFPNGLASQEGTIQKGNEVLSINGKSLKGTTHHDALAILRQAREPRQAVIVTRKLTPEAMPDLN

LNX1_1, Q8TBB1 = biological target: LNX1_1, Q8TBB1
LNX1_1, Q8TBB1, sequence (Q8TBB1 261-371): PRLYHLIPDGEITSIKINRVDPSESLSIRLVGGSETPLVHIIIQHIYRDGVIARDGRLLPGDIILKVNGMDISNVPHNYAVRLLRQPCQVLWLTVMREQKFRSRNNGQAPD

LNX1_2, Q8TBB1 = biological target: LNX1_2, Q8TBB1
LNX1_2, Q8TBB1, sequence (Q8TBB1 371-470): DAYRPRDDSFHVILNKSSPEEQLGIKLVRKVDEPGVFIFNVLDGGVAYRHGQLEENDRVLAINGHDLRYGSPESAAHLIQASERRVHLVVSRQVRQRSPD

MPDZ_5, O75970 = biological target: T9, MPDZ_5, O75970
MPP2, Q14168 = biological target: T10, MPP2, Q14168
NHERF3_3, Q5T2W1 = biological target: T11, NHERF3_3, Q5T2W1
NHERF4_4, Q86UT5 = biological target: NHERF4_4, Q86UT5
NHERF4_4, Q86UT5, sequence (Q86UT5 464-550): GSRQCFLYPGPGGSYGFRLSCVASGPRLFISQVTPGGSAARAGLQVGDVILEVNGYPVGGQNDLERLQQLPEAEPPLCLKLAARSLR

SNTB1, Q13884 = biological target: T12, SNTB1, Q13884
TJP1_3, Q07157 = biological target: TJP1_3, Q07157
TJP1_3, Q07157, sequence (Q07157 416-512): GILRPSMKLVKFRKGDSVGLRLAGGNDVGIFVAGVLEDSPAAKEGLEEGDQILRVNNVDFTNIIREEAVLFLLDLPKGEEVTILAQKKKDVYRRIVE

Binder | pKd (APBA1_1, Q02410) | pKd (APBA2_1, Q99767) | pKd (APBA2_2, Q99767) | pKd (ARHGEF11, O15085) | pKd (CASK, O14936) | pKd (DFNB31_1, Q9P202) | pKd (DLG1_2, Q12959) | pKd (DLG1_3, Q12959) | pKd (DLG3_3, Q92796) | pKd (DLG4_1, P78352) | pKd (FRMPD4, Q14CM0) | pKd (GOPC, Q9HD26) | pKd (GORASP2, Q9H8Y8) | pKd (GRID2IP_2, A4D2P6) | pKd (GRIP1_2, Q9Y3R0) | pKd (GRIP1_5, Q9Y3R0) | pKd (IL16_1, Q14005) | pKd (IL16_3, Q14005) | pKd (LNX1_1, Q8TBB1) | pKd (LNX1_2, Q8TBB1) | other results
REKKFFCTIL [GNG4, P50150] | below the threshold | below the threshold | 3.47 | 5.34 | below the threshold | 4.1 | 4.3 | 4.35 | 4.38 | 4.06 | 4.23 | 5.18 | 5.05 | 5.07 | 4.1 | below the threshold | 3.67 | below the threshold | 5.09 | below the threshold | pKd (MPDZ_5, O75970): below the threshold; pKd (MPP2, Q14168): 4.01; pKd (NHERF3_3, Q5T2W1): 3.5; pKd (NHERF4_4, Q86UT5): 3.76; pKd (SNTB1, Q13884): 4.43; pKd (TJP1_3, Q07157): below the threshold
TGPWKNETTV [ADGRA1, Q86SQ6] | below the threshold | below the threshold | below the threshold | 4.09 | below the threshold | 3.73 | 5.33 | 4.47 | 4.48 | 4.99 | below the threshold | 3.69 | 3.57 | below the threshold | below the threshold | below the threshold | 3.83 | below the threshold | below the threshold | 3.62 | pKd (MPDZ_5, O75970): below the threshold; pKd (MPP2, Q14168): below the threshold; pKd (NHERF3_3, Q5T2W1): below the threshold; pKd (NHERF4_4, Q86UT5): 3.9; pKd (SNTB1, Q13884): 4.67; pKd (TJP1_3, Q07157): below the threshold

Second part, led by results:

pKd (APBA1_1, Q02410) | pKd (APBA2_1, Q99767) | pKd (APBA2_2, Q99767) | pKd (ARHGEF11, O15085) | pKd (CASK, O14936) | pKd (DFNB31_1, Q9P202) | pKd (DLG1_2, Q12959) | pKd (DLG1_3, Q12959) | pKd (DLG3_3, Q92796) | pKd (DLG4_1, P78352) | pKd (FRMPD4, Q14CM0) | pKd (GOPC, Q9HD26) | pKd (GORASP2, Q9H8Y8) | pKd (GRID2IP_2, A4D2P6) | pKd (GRIP1_2, Q9Y3R0) | pKd (GRIP1_5, Q9Y3R0) | pKd (IL16_1, Q14005) | pKd (IL16_3, Q14005) | pKd (LNX1_1, Q8TBB1) | pKd (LNX1_2, Q8TBB1) | Binder | other results
below the threshold | below the threshold | below the threshold | below the threshold | below the threshold | below the threshold | below the threshold | below the threshold | below the threshold | below the threshold | below the threshold | below the threshold | below the threshold | below the threshold | below the threshold | below the threshold | below the threshold | below the threshold | below the threshold | below the threshold | DHLGGGGESM [TNRC6A, Q8NDV7] | pKd (MPDZ_5, O75970): below the threshold; pKd (MPP2, Q14168): below the threshold; pKd (NHERF3_3, Q5T2W1): below the threshold; pKd (NHERF4_4, Q86UT5): below the threshold; pKd (SNTB1, Q13884): below the threshold; pKd (TJP1_3, Q07157): below the threshold
below the threshold | below the threshold | below the threshold | 4.13 | below the threshold | below the threshold | 3.5 | 3.56 | below the threshold | below the threshold | 3.54 | 3.55 | below the threshold | 3.99 | below the threshold | below the threshold | below the threshold | below the threshold | 3.58 | below the threshold | ALPLPQSSTC [IGF1R, P08069] | pKd (MPDZ_5, O75970): below the threshold; pKd (MPP2, Q14168): below the threshold; pKd (NHERF3_3, Q5T2W1): below the threshold; pKd (NHERF4_4, Q86UT5): below the threshold; pKd (SNTB1, Q13884): below the threshold; pKd (TJP1_3, Q07157): below the threshold
below the threshold | below the threshold | below the threshold | below the threshold | below the threshold | below the threshold | 4.71 | 3.58 | below the threshold | 4.04 | below the threshold | below the threshold | 4.17 | 3.93 | below the threshold | below the threshold | 4.13 | below the threshold | 3.83 | below the threshold | RRLQGTSSMV [GOLT1A, Q6ZVE7] | pKd (MPDZ_5, O75970): below the threshold; pKd (MPP2, Q14168): below the threshold; pKd (NHERF3_3, Q5T2W1): below the threshold; pKd (NHERF4_4, Q86UT5): below the threshold; pKd (SNTB1, Q13884): below the threshold; pKd (TJP1_3, Q07157): below the threshold
